Experiments:
Mouse NFS-60 cells = assay: Proliferation assay on mouse NFS-60 cells (AlamarBlue); type: cell-based; details: for F.I. (fluorescence at 595 nm, AlamarBlue, cell viability): 72 hours
Procedure: Mouse NFS-60 cells were obtained from American Type Culture Collection (ATCC), VA, and cultured in RPMI-1640 medium supplemented with 10% fetal bovine serum (FBS), 0.05 mM 2-mercapoethanol and 62 ng/ml human macrophage colony stimulating factor (M-CSF). For proliferation assay, mouse NFS-60 cells were washed three times with RPMI-1640 medium and resuspended in RPMI-1640 medium with 10% FBS and 0.05 mM 2-mercapoethanol at a density of 1.5×10^5 cells/ml. In 96-well plates, 100 μl of cell suspension was added into each well, followed by the addition of varied concentrations of bGCSF, BLV1H12 antibody, and the immunoglobulin constructs described herein, Equal volume of PBS buffer was added into the control wells. The plates were incubated at 37° C. in a 5% CO2 incubator for 72 hours. Cells were then treated with AlamarBlue (Invitrogen) ( 1/10 volume of cell suspension) for 4 hours at 37° C. Fluorescence at 595 nm for each well was read to indicate the cell viability.

[1] = Pharmacokinetics in mice (ELISA of blood samples); type: in vivo; details: 70 μg injected, BALB/c mice
Procedure: For PK study in mice, 70 μg of the immunoglobulin constructs described herein were injected into 3 BALB/c mice per group. Blood samples were drawn from time 0 to 14 days with extended intervals and analyzed by ELISA using anti-human IgG Fc antibody with horseradish peroxidase (HRP) labeled (KPL) and anti-6×His antibody (“6×His” disclosed as SEQ ID NO: 511) with HRP labeled (Clontech). Data were normalized by taking maximal concentration at the first time point (30 min).

mice neutrophils = assay: Neutrophil counts in mice, 10th day after injection; type: in vivo; details: blood stained and counted at the 10th day post-injection
Procedure: On the 10th day after injection of BLV1H12-bGCSF fusion antibodies into mice for PK study, blood samples were drawn from the mice and stained using the Diff Quick Staining Kit (Thermo Fisher Scientific, IL). Neutrophils and white blood cells were counted under microscope and the percentages of neutrophils were analyzed. FIGS. 12A-12B and Table 12 show proliferative activities of BLV1H12-bGCSF fusion antibodies on mice neutrophils that are blood stained and counted at the 10th day post-injection.

GLP-1 receptor (GLP-1R) = target: T1, GLP-1 receptor (GLP-1R) (Homo sapiens, UniProt P43220); assay: GLP-1R activation, cAMP responsive luciferase reporter in HEK293 cells; type: cell-based; details: HEK293 cells expressing GLP-1R, 24 h
T1 construct: expressed in transfected cells; host or cells: HEK293 (with cAMP responsive luciferase reporter gene)
T1 sequence (P43220 24-463, species assumed): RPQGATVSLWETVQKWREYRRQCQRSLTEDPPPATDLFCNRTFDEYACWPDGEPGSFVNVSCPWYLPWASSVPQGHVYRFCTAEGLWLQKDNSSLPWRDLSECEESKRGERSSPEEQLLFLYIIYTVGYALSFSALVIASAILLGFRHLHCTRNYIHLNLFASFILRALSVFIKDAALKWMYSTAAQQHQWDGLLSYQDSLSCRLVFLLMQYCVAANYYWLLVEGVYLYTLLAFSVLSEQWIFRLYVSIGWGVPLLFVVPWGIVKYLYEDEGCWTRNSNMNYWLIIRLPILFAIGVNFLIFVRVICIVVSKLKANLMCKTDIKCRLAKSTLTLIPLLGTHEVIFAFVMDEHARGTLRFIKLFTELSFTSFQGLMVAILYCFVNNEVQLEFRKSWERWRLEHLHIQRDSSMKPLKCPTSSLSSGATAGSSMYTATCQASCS
Procedure: HEK293 cells expressing surface GLP-1R and cAMP responsive luciferase reporter gene were seeded in 384 well plates at a density of 5000 cells per well. […] Subsequently, luciferase assay was performed using One-Glo luciferase reagent according manufacture's instruction (Promega).
HEK293 cells expressing surface GLP-1R and cAMP responsive luciferase reporter gene were seeded in 384 well plates at a density of 5000 cells per well. After 24 h incubation at 37° C. with 5% CO2, cells were treated with various concentrations of peptides and BLV1H12-GLP-1 clip fusion proteins and incubated for another 24 h. Subsequently, luciferase assay was performed using One-Glo luciferase reagent according manufacture's instruction (Promega).

CXCR1 = target: T2, CXCR1 (Homo sapiens, UniProt P25024); assay: Flow cytometry binding to CXCR1-U2OS cells; details: CXCR1-U2OS cells; cell culture supernatant; flow cytometry
T2 construct: host or cells: U2OS
T2 sequence (P25024 1-350): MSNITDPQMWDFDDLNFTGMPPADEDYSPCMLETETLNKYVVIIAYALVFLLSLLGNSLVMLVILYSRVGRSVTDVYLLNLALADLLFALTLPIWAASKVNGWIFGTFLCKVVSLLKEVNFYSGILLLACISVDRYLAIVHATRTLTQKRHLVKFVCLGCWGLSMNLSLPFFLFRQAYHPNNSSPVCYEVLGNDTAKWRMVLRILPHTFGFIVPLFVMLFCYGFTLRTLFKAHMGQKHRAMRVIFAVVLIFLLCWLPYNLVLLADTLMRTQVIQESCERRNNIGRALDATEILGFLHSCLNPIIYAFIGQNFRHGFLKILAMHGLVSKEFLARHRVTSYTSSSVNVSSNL
Procedure: (§1) Briefly, a cell line expressing functionally validated CXCR1 derived from U2OS cells was obtained from DiscoveRx and cultured per manufacturer's instructions (Cat #93-0226C3, DiscoveRx Corporation, Freemont, Calif.). The parental cell line U2OS was obtained from ATCC and cultured under the same conditions as the CXCR1 cells. Cell culture supernatants from Example 2 above were then tested for binding to cells by flow cytometry. The adherent U2OS or CXCR1-U2OS cells were dissociated with Accutase (Innovative Cell Technologies, Inc., San Diego, Calif.), neutralized with an equal volume of media containing 10% serum, centrifuged at 1000 g, and resuspended in PBS with 2% BSA. Next, cells were dispensed into microtiter plates to achieve between 30,000 to 300,000 cells per well, centrifuged again, and resuspended in cell culture supernatant containing expressed IgG, or a dilution of IgG-containing cell culture supernatant. A fluorescent-conjugated anti-Human Fc antibody was used to detect binding of the expressed BLV1H12-IL8 fusion proteins to cells.

Parental U2OS = assay: Flow cytometry binding to parental U2OS cells; details: cell culture supernatant
Procedure: as §1

B1: Ab: bovine BLV1H12 antibody with ultralong CDR3, no insertion; scaffold of the fusions and control (antibody)
heavy: QVQLRESGPSLVKPSQTLSLTCTASGFSLSDKAVGWVRQAPGKALEWLGSIDTGGNTGYNPGLKSRLSITKDNSKSQVSLSVSSVTTEDSATYYCTSVHQETKKYQSCPDGYRERSDCSNRPACGTSDCCRVSVFGNCLTTLPVSYSYTYNYEWHVDVWGQGLLVTVSS
light: QAVLNQPSSVSGSLGQRVSITCSGSSSNVGNGYVSWYQLIPGSAPRTLIYGDTSRASGVPDRFSGSRSGNTATLTISSLQAEDEADYFCASAEDSSSNAVFGSGTTLTVLGQPKSPPSVTLFPPSTEELNGNKATLVCLISDFYPGSVTVVWKADGSTITRNVETTRASKQSNSKYAASSYLSLTSSDWKSKGSYSCEVTHEGSTVTKTVKPSECS
proliferative activity on mouse NFS-60 cells (Mouse NFS-60 cells): lack of proliferative activity
F.I. (fluorescence at 595 nm, AlamarBlue, cell viability) (Mouse NFS-60 cells; 0.45725 ng/mL): 1040
F.I. (fluorescence at 595 nm, AlamarBlue, cell viability) (Mouse NFS-60 cells; 1.37174 ng/mL): 1010
F.I. (fluorescence at 595 nm, AlamarBlue, cell viability) (Mouse NFS-60 cells; 4.11523 ng/mL): 983.3
F.I. (fluorescence at 595 nm, AlamarBlue, cell viability) (Mouse NFS-60 cells; 12.34568 ng/mL): 971.8
F.I. (fluorescence at 595 nm, AlamarBlue, cell viability) (Mouse NFS-60 cells; 37.03704 ng/mL): 960.5
F.I. (fluorescence at 595 nm, AlamarBlue, cell viability) (Mouse NFS-60 cells; 111.11111 ng/mL): 991.83
F.I. (fluorescence at 595 nm, AlamarBlue, cell viability) (Mouse NFS-60 cells; 333.33333 ng/mL): 964.798
Percentage (blood level normalized to first time point, 30 min) ([1]; day 0.021): 100.00%
Percentage (blood level normalized to first time point, 30 min) ([1]; day 0.042): 106.09%
Percentage (blood level normalized to first time point, 30 min) ([1]; day 0.083): 95.88%
Percentage (blood level normalized to first time point, 30 min) ([1]; day 0.125): 86.54%
Percentage (blood level normalized to first time point, 30 min) ([1]; day 0.250): 74.26%
Percentage (blood level normalized to first time point, 30 min) ([1]; day 1.000): 52.43%
Percentage (blood level normalized to first time point, 30 min) ([1]; day 2.000): 39.46%
Percentage (blood level normalized to first time point, 30 min) ([1]; day 3.000): 36.97%
Percentage (blood level normalized to first time point, 30 min) ([1]; day 8.000): 45.44%
Percentage (blood level normalized to first time point, 30 min) ([1]; day 10.000): 40.98%
Percentage (blood level normalized to first time point, 30 min) ([1]; day 14.000): 51.96%
Percentage of Neutrophil (mice neutrophils): 18.81
RLU (cAMP responsive luciferase reporter) (GLP-1 receptor (GLP-1R); 1.26953 nM): 5200 RLU
RLU (cAMP responsive luciferase reporter) (GLP-1 receptor (GLP-1R); 2.53906 nM): 5000 RLU
RLU (cAMP responsive luciferase reporter) (GLP-1 receptor (GLP-1R); 5.07813 nM): 5600 RLU
RLU (cAMP responsive luciferase reporter) (GLP-1 receptor (GLP-1R); 10.15625 nM): 5500 RLU
RLU (cAMP responsive luciferase reporter) (GLP-1 receptor (GLP-1R); 20.3125 nM): 5380 RLU
RLU (cAMP responsive luciferase reporter) (GLP-1 receptor (GLP-1R); 40.625 nM): 4600 RLU
RLU (cAMP responsive luciferase reporter) (GLP-1 receptor (GLP-1R); 81.25 nM): 6140 RLU
RLU (cAMP responsive luciferase reporter) (GLP-1 receptor (GLP-1R); 162.5 nM): 5760 RLU
RLU (cAMP responsive luciferase reporter) (GLP-1 receptor (GLP-1R); 325 nM): 5600 RLU
RLU (cAMP responsive luciferase reporter) (GLP-1 receptor (GLP-1R); 650 nM): 5800 RLU
RLU (cAMP responsive luciferase reporter) (GLP-1 receptor (GLP-1R); 1300 nM): 14000 RLU
Median Arbitrary Fluorescence Units (IgG binding) (CXCR1): 4 AFU
Median Arbitrary Fluorescence Units (IgG binding) (Parental U2OS): 4 AFU

Source: patent US10774132B2, “Ultralong complementarity determining regions and uses thereof” (THE SCRIPPS RESEARCH INSTITUTE, priority 2012, dated 2020)
